# Paper PMC7960543 (The Journal of Biological Chemistry, 2021)
# B1: recombinant soluble CD40L (residues 118–261) with no N-terminal KGD motif, wild type [not stated] / CD40 fragment (residues 21–144) fused to GST [not stated] (parent complex)
# chain 1: QNPQIAAHVISEASSKTTSVLQWAEKGYYTMSNNLVTLENGKQLTVKRQGLYYIYAQVTFCSNREASSQAPFIASLCLKSPGRFERILLRAANTHSSAKPCGQQSIHLGGVFELQPGASVFVNVTDPSQVSHGTGFTSFGLLKL
# chain 2: EPPTACREKQYLINSQCCSLCQPGQKLVSDCTEFTETECLPCGESEFLDTWNRETHCHQHKYCDPNLGLRVQQKGTSETDTICTCEEGWHCTSEACESCVLHRSCSPGFGVKQIATGVSDTICE
# Variants of: B1
# Assay: ELISA; GST-CD40 (21–144) immobilized at 100 μg/ml in PBS; CD40L mutants 20 μg/ml; detection with anti-histidine Abs; read off a plot
row,Variant,response [OD450]
1,chain 1 QNPQIAAHVISEASSKTTSVLQWAETGYYTMSNNLVTLENGKQLTVKRQGLYYIYAQVTFCSNREASSQAPFIASLCLKSPGRFERILLRAANTHSSAKPCGQQSIHLGGVFELQPGASVFVNVTDPSQVSHGTGFTSFGLLKL [chain 1 K26T],~0.32
2,chain 1 QNPQIAAHVISEASSKTTSVLQWAEKGYYTMSNNLVTPENGKQLTVKRQGLYYIYAQVTFCSNREASSQAPFIASLCLKSPGRFERILLRAANTHSSAKPCGQQSIHLGGVFELQPGASVFVNVTDPSQVSHGTGFTSFGLLKL [chain 1 L38P],~0.24
3,"chain 1 QNPQIAAHVIRGASSKTTSVLQWAEKGYYTMSNNLVTLENGKQLTVKRQGLYYIYAQVTFCSNREASSQAPFIASLCLKSPGRFERILLRAANTHSSAKPCGQQSIHLGGVFELQPGASVFVNVTDPSQVSHGTGFTSFGLLKL [chain 1 S11R, chain 1 E12G]",~0.29
4,chain 1 QNPQIAAHVISEASSKTTSVLQWAEKEYYTMSNNLVTLENGKQLTVKRQGLYYIYAQVTFCSNREASSQAPFIASLCLKSPGRFERILLRAANTHSSAKPCGQQSIHLGGVFELQPGASVFVNVTDPSQVSHGTGFTSFGLLKL [chain 1 G27E],~0.35
